Measured values: the supplement of paper PMC9112550, “Optimization of the antimicrobial peptide Bac7 by deep mutational scanning” (BMC Biology, 2022)

These sequences were tested on Escherichia coli TOP10 (assay: shrunken log2 fold change of peptide-encoding DNA abundance (4.5 h post-induction vs induction); higher = less antimicrobial activity (less host growth inhibition)). Details: time post-induction: 4.5 h; library: site-saturation at positions 5, 18, 19, 20.
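Also: peptides expressed intracellularly from a pBAD plasmid library in pooled LB shake-flask culture, induced with 0.3% L-arabinose, DNA abundance read by NGS, three biological replicates, DESeq2 with apeglm shrinkage.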

Sequence	shrunken log2 fold change
RRIRQRPPRLPRPRPRPEVNPRP	-0.142
RRIRYRPPRLPRPRPRPDCNPRP	-0.871
RRIRHRPPRLPRPRPRPQRSPRP	0.0449
RRIRSRPPRLPRPRPRPIVHPRP	-0.2
RRIRPRPPRLPRPRPRPYCYPRP	-0.798
RRIRQRPPRLPRPRPRPLILPRP	-0.424
RRIRQRPPRLPRPRPRPCQGPRP	-0.0332
RRIRTRPPRLPRPRPRPTKQPRP	-0.0507
RRIRLRPPRLPRPRPRPSMQPRP	-0.205
RRIRVRPPRLPRPRPRPDSYPRP	0.0384
RRIRFRPPRLPRPRPRPSLAPRP	0.119
RRIRCRPPRLPRPRPRPKFGPRP	0.231
RRIRLRPPRLPRPRPRPKCAPRP	0.0163
RRIRSRPPRLPRPRPRPEHPPRP	0.166
RRIRARPPRLPRPRPRPRWHPRP	0.323
RRIRWRPPRLPRPRPRPKLEPRP	0.808
RRIRWRPPRLPRPRPRPRKTPRP	-0.0389
RRIRLRPPRLPRPRPRPSTTPRP	-0.347
RRIRPRPPRLPRPRPRPEMHPRP	0.395
RRIRGRPPRLPRPRPRPSFCPRP	0.348
RRIRERPPRLPRPRPRPQLCPRP	0.0651
RRIRQRPPRLPRPRPRPSKCPRP	-0.719
RRIRARPPRLPRPRPRPWNMPRP	-0.046
RRIRMRPPRLPRPRPRPRDGPRP	2.69
RRIRIRPPRLPRPRPRPCMKPRP	-1.01

Sequence	shrunken log2 fold change
RRIRYRPPRLPRPRPRPHCSPRP	-0.239
RRIRLRPPRLPRPRPRPMSFPRP	-0.284
RRIRRRPPRLPRPRPRPQFIPRP	-0.387
RRIRERPPRLPRPRPRPNFGPRP	0.0437
RRIRDRPPRLPRPRPRPEIPPRP	-0.0405
RRIRTRPPRLPRPRPRPIWAPRP	-0.085
RRIRMRPPRLPRPRPRPCNYPRP	0.0171
RRIRIRPPRLPRPRPRPSKMPRP	-1.18
RRIRTRPPRLPRPRPRPLMLPRP	-0.297
RRIRYRPPRLPRPRPRPQHEPRP	0.0438
RRIRKRPPRLPRPRPRPLGNPRP	0.094
RRIRHRPPRLPRPRPRPKCLPRP	-0.25
RRIRNRPPRLPRPRPRPFDLPRP	-0.176
RRIRMRPPRLPRPRPRPVDNPRP	0.113
RRIRTRPPRLPRPRPRPSIWPRP	0.112
RRIRLRPPRLPRPRPRPATVPRP	-0.138
RRIRGRPPRLPRPRPRPNESPRP	0.302
RRIRKRPPRLPRPRPRPGMNPRP	-0.0284
RRIRRRPPRLPRPRPRPIPWPRP	0.312
RRIRWRPPRLPRPRPRPLSEPRP	0.104
RRIRLRPPRLPRPRPRPWLCPRP	-0.0198
RRIRTRPPRLPRPRPRPVSNPRP	-0.442
RRIRWRPPRLPRPRPRPNGSPRP	0.0647
RRIRNRPPRLPRPRPRPMLVPRP	-0.0299
RRIRWRPPRLPRPRPRPWERPRP	0.142
